The record followed here is publication PMC4030845, “DeSUMOylation Controls Insulin Exocytosis in Response to Metabolic Signals” (Biomolecules, 2012).

The term stoichiometry N denotes a count of units in the complex or per binding partner.

This data set deals with the molecule itself. The data set is described as follows: immunoblot of cell lysates after SDS-PAGE (dimer band); INS-1 832/13 cells infected with Ad-SENP1, incubated in KRBH buffer with or without H2O2 (legend: 200 µM; methods: 1 mM) for 30 min at 37 °C; lysed in Cell-Lytic-M with DTT; 8% SDS-PAGE; blot with anti-SENP1 (C12). In general terms: Immunoblotting shows a protein as a band on a membrane.

B1: SENP1 (sentrin-specific SUMO protease 1) (enzyme, UniProt Q9P0U3 1-644, looked up)
chain: MDDIADRMRMDAGEVTLVNHNSVFKTHLLPQTGFPEDQLSLSDQQILSSRQGHLDRSFTCSTRSAAYNPSYYSDNPSSDSFLGSGDLRTFGQSANGQWRNSTPSSSSSLQKSRNSRSLYLETRKTSSGLSNSFAGKSNHHCHVSAYEKSFPIKPVPSPSWSGSCRRSLLSPKKTQRRHVSTAEETVQEEEREIYRQLLQMVTGKQFTIAKPTTHFPLHLSRCLSSSKNTLKDSLFKNGNSCASQIIGSDTSSSGSASILTNQEQLSHSVYSLSSYTPDVAFGSKDSGTLHHPHHHHSVPHQPDNLAASNTQSEGSDSVILLKVKDSQTPTPSSTFFQAELWIKELTSVYDSRARERLRQIEEQKALALQLQNQRLQEREHSVHDSVELHLRVPLEKEIPVTVVQETQKKGHKLTDSEDEFPEITEEMEKEIKNVFRNGNQDEVLSEAFRLTITRKDIQTLNHLNWLNDEIINFYMNMLMERSKEKGLPSVHAFNTFFFTKLKTAGYQAVKRWTKKVDVFSVDILLVPIHLGVHWCLAVVDFRKKNITYYDSMGGINNEACRILLQYLKQESIDKKRKEFDTNGWQLFSKKSQEIPQQMNGSDCGMFACKYADCITKDRPINFTQQHMPYFRKRMVWEILHRKLL
notes: The adenovirus co-expresses GFP to identify infected cells; also called Ad-SENP1
Consider B1, for which the “stoichiometry N” value was found to be 2.
